Data reported in IntAct's records for PubMed 31515488.

B1: Kelch-like protein 2 (Homo sapiens), O95198 (parent)
chain: METPPLPPACTKQGHQKPLDSKDDNTEKHCPVTVNPWHMKKAFKVMNELRSQNLLCDVTIVAEDMEISAHRVVLAACSPYFHAMFTGEMSESRAKRVRIKEVDGWTLRMLIDYVYTAEIQVTEENVQVLLPAAGLLQLQDVKKTCCEFLESQLHPVNCLGIRAFADMHACTDLLNKANTYAEQHFADVVLSEEFLNLGIEQVCSLISSDKLTISSEEKVFEAVIAWVNHDKDVRQEFMARLMEHVRLPLLPREYLVQRVEEEALVKNSSACKDYLIEAMKYHLLPTEQRILMKSVRTRLRTPMNLPKLMVVVGGQAPKAIRSVECYDFKEERWHQVAELPSRRCRAGMVYMAGLVFAVGGFNGSLRVRTVDSYDPVKDQWTSVANMRDRRSTLGAAVLNGLLYAVGGFDGSTGLSSVEAYNIKSNEWFHVAPMNTRRSSVGVGVVGGLLYAVGGYDGASRQCLSTVECYNATTNEWTYIAEMSTRRSGAGVGVLNNLLYAVGGHDGPLVRKSVEVYDPTTNAWRQVADMNMCRRNAGVCAVNGLLYVVGGDDGSCNLASVEYYNPTTDKWTVVSSCMSTGRSYAGVTVIDKPL
partner: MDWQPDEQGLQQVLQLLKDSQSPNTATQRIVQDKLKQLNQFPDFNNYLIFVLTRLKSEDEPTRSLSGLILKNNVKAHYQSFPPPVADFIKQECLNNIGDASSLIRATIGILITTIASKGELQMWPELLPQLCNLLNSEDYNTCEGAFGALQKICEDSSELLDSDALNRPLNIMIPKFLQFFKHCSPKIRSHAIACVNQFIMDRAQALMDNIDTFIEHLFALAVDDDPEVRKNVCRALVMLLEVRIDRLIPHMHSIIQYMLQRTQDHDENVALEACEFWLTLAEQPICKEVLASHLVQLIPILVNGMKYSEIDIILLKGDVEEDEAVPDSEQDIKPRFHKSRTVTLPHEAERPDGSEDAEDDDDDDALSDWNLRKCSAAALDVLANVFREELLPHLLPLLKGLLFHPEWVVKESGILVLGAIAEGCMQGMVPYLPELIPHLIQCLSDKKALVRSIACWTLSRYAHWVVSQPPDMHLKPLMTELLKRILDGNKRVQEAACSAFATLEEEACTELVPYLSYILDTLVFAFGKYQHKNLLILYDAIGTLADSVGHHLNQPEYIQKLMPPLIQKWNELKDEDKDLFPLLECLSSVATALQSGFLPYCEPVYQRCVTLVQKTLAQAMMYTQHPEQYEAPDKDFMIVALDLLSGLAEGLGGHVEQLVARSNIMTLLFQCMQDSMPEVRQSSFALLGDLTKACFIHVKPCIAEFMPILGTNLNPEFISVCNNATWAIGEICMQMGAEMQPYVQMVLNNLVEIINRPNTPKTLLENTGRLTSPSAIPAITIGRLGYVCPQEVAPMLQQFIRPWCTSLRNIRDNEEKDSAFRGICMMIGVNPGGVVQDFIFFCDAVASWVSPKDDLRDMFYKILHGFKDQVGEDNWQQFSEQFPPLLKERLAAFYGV
B2: Filamin-binding LIM protein 1 (Homo sapiens), Q8WUP2 (parent)
chain: MASKPEKRVASSVFITLAPPRRDVAVAEEVRQAVCEARRGRPWEAPAPMKTPEAGLAGRPSPWTTPGRAAATVPAAPMQLFNGGCPPPPPVLDGEDVLPDLDLLPPPPPPPPVLLPSEEEAPAPMGASLIADLEQLHLSPPPPPPQAPAEGPSVQPGPLRPMEEELPPPPAEPVEKGASTDICAFCHKTVSPRELAVEAMKRQYHAQCFTCRTCRRQLAGQSFYQKDGRPLCEPCYQDTLERCGKCGEVVRDHIIRALGQAFHPSCFTCVTCARCIGDESFALGSQNEVYCLDDFYRKFAPVCSICENPIIPRDGKDAFKIECMGRNFHENCYRCEDCRILLSVEPTDQGCYPLNNHLFCKPCHVKRSAAGCC
partner: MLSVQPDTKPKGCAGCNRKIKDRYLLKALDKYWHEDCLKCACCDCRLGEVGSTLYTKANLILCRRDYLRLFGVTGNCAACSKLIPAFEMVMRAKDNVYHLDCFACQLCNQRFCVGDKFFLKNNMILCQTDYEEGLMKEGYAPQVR
B3: UBX domain-containing protein 2B (Homo sapiens), Q14CS0 (parent)
chain: MAEGGGPEPGEQERRSSGPRPPSARDLQLALAELYEDEVKCKSSKSNRPKATVFKSPRTPPQRFYSSEHEYSGLNIVRPSTGKIVNELFKEAREHGAVPLNEATRASGDDKSKSFTGGGYRLGSSFCKRSEYIYGENQLQDVQILLKLWSNGFSLDDGELRPYNEPTNAQFLESVKRGEIPLELQRLVHGGQVNLDMEDHQDQEYIKPRLRFKAFSGEGQKLGSLTPEIVSTPSSPEEEDKSILNAVVLIDDSVPTTKIQIRLADGSRLIQRFNSTHRILDVRNFIVQSRPEFAALDFILVTSFPNKELTDESLTLLEADILNTVLLQQLK
partner: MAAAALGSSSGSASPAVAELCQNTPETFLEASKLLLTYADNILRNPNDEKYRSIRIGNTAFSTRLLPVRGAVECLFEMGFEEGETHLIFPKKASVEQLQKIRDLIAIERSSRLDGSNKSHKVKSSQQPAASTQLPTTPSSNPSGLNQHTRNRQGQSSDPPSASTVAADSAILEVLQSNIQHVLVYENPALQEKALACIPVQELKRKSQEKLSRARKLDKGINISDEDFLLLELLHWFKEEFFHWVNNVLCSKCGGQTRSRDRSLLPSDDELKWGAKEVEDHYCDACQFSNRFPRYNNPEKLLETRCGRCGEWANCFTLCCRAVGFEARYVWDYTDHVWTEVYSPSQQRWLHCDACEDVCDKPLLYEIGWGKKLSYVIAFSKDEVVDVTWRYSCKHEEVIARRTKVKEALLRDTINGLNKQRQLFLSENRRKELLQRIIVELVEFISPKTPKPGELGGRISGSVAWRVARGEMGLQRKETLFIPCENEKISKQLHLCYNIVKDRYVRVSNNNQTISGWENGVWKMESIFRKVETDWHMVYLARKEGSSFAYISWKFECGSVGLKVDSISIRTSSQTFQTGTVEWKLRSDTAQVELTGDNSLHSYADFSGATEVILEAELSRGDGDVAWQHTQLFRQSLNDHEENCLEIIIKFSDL

Variants of: B1
Details: with tnpo2_human TNPO2, O14787

effect of a mutation on the interaction | Variant
with no effect | S68A
with no effect | A480T

Variants of: B2
Details: with lmo3_human LMO3, Q8TAP4

effect of a mutation on the interaction | Variant
with no effect | V174I
with no effect | E233K

Variants of: B2
Details: with lmo3_human LMO3, Q8TAP4
Remark: another data set of the same source

effect of a mutation on the interaction | Variant
disrupting interaction strength | Y204C

Variants of: B3
Details: with ngly1_human NGLY1, Q96IV0

effect of a mutation on the interaction | Variant
with no effect | D109A
